Data from article PMC4980298 (Molecular microbiology, 2016).

Target: T1, FimL fused to T18 or T25 (BACTH) (P. aeruginosa PAO1, UniProt Q9I2S3 1-562)
T1 sequence: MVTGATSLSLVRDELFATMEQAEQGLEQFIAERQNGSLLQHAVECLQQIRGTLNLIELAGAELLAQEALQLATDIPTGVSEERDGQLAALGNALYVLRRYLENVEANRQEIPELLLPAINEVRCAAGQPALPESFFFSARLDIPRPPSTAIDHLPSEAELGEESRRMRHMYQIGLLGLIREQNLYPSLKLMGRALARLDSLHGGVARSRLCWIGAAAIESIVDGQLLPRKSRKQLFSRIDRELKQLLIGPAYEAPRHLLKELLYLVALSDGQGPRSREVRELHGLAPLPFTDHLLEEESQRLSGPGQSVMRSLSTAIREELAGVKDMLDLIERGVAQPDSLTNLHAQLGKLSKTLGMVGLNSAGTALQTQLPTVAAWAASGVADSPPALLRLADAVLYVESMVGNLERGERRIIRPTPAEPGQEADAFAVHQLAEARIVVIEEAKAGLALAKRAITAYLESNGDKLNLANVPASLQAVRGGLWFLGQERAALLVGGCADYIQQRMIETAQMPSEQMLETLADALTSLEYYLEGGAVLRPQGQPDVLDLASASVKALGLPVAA
Assay: two-hybrid

B1: PilG fused to T18 or T25 (BACTH) (natural protein)
chain: MEQQSDGLKVMVIDDSKTIRRTAETLLKKVGCDVITAIDGFDALAKIADTHPNIIFVDIMMPRLDGYQTCALIKNNSAFKSTPVIMLSSKDGLFDKAKGRIVGSDQYLTKPFSKEELLGAIKAHVPSFTPVDAVS
fold increase in β-galactosidase activity over controls: ~20 fold
